Results taken from FireProtDB (doi:10.1021/bi00416a052).

B1: Ribonuclease HI, P0A7Y4 (parent)
chain: MLKQVEIFTDGSCLGNPGPGGYGAILRYRGREKTFSAGYTRTTNNRMELMAAIVALEALKEHCEVILSTDSQYVRQGITQWIHNWKKRGWKTADKKPVKNVDLWQRLDAALGQHQIKWEWVKGHAGHPENERCDELARAAAMNPTLEDTGYQVEV

Variants of: B1
Conditions: Escherichia coli (strain K12), Thermal, CD, NaCl 0.1 M, reversible: yes, structure 2RN2, whole UniProt chain shown
[1] = pH 3, 49.8 °C, glycine-HCl 10 mM
[2] = pH 5.5, 52 °C, Sodium acetate 20 mM

Row | Variant | ddG of mutation (higher = less stable) [1] | Tm (pH 3, glycine-HCl 10 mM) | change of melting temperature, mutant - wild type (higher = more stable) (pH 3, glycine-HCl 10 mM) | ddG of mutation (higher = less stable) [2] | Tm (pH 5.5, Sodium acetate 20 mM) | change of melting temperature, mutant - wild type (higher = more stable) (pH 5.5, Sodium acetate 20 mM)
1 | MLKQVEIFTDGSCLGNPGPGGYGAILRYRGREKTFSAGYTRTTNNRMELMAAIVALEALKEHCEVILSTDSQYARQGITQWIHNWKKRGWKTADKKPVKNVDLWQRLDAALGQHQIKWEWVKGHAGHPENERCDELARAAAMNPTLEDTGYQVEV | 2.2 kcal/mol | 42.2 °C | -7.6 °C | 3.4 kcal/mol | 39.3 °C | -12.7 °C
2 | MLKQVEIFTDGSCLGNPGPGGYGAILRYRGREKTFSAGYTRTTNNRMELMAAIVALEALKEHCEVILSTDSQYLRQGITQWIHNWKKRGWKTADKKPVKNVDLWQRLDAALGQHQIKWEWVKGHAGHPENERCDELARAAAMNPTLEDTGYQVEV | -1.1 kcal/mol | 53.5 °C | 3.7 °C | -0.9 kcal/mol | 55.3 °C | 3.3 °C
3 | MLKQVEIFTDGSCLGNPGPGGYGAILRYRGREKTFSAGYTRTTNNRMELMAAIVALEALKEHCEVILSTDSQYIRQGITQWIHNWKKRGWKTADKKPVKNVDLWQRLDAALGQHQIKWEWVKGHAGHPENERCDELARAAAMNPTLEDTGYQVEV | -0.7 kcal/mol | 52.2 °C | 2.4 °C | -0.6 kcal/mol | 54.1 °C | 2.1 °C
